These results are taken from article PMC10477855.

The test concerns the target UBR5 (UniProt O95071). Nature of the test: co-IP and immunoblot, transfected cells. As to conditions: reference: ACSL4 wild type; sites S447.

As to ACSL4 (from UniProt O60488) ACSL4 S447A, the “binding against the reference” value is recorded as “lost”.
